The record followed here is a protein production outcome set (Wang et al. 2014).

A short description of the data set: label from the status in PepcDB records.

As to “MKKRILAVAVTSMLLSASVFAQETVVPSRVGDLKFESDFPTQETMKNMLNEMDFQRATQAYLWGIPASSIMEWLNVSRNDFKFEEGQMGFFNTLKQKQGIITANFTTPYVIGTWNLEKTGPLIINLPEAKMAGMMLDVHQRVLSDLSLLGPDKGKGGKYLIVPPGEKYKDLNPKGYYVIRPKTNVVYGGIRILEPDVDRVVKQVVPNITTQPYADGKLGRKIPVAQVPEIDWTHIPKDGLEYWKTIHQIIQENPVEERDRFVMAQLKFLGIEKGKPFNPTEEQKKILLEASKVGRAMAQSNDYTKRFTQPYWKGTNWKDAISVSLDQRSENYDELDERAAWFYEAITVSRGMKSTIPGFGQRYLVTYQDSDGNWLSGEHTYKLHVPANVPASNFWSTTVYDENNRLMIINDAGSPDISSRKNLKVNSDGSIDVYYGPKPVKGYENNWVQTNPGEGWFTYFRFYGPTEKMFDKSWTMGDIELVKLEHHHHHH”, the protein production entry is given as “not failed”.

For the sequence “MKKRLLLFILVLGVCLFTSCGNFVKTNIYFSAAESAFDSGKYEDAIKYYDKVIEADSGNAMAYLGKGLALDALGKYEEALEFFDKAIEINKDLAKAYNAKGTTLASLERYEESLENFKKAAELKPKNSAYQNDVAYGLNNLGRFEEAIQYAEKALKLNPRSGVAYSNKGFALDALGKLDEAIECYDKAIELSPTYTNAYYNKSIAVFKMGKTEEAIELLDKVLEIDPDDLDAITSKGYCLNELGKYEKAIECFDTAIEKYPKDPYPYVCKATSLYYLGKYDNALEECNKAIKLEYTFPDSYIWKAKILVEKGDIEEARKSCDEFLAIAEDASVYDMKGQIYLHEYNYPEAIKLFDKAIEVDPSYEDSYINKIYCLYLQKNYKECIEFATKVQTIFPNSADIPWYIGDCYSIMMEPEKAIEYLKKAHELNPKDVGILTSIAWEYYSLEDYAKASEYAEKAAEISADDESVKYIREKLENQKLPEAEQIVEFVKNNYLYYDKIANFEALANEFKAKGEVGVKDICNFIESIRQKDDMFTFVIHGDDYDLLKYEESISQVTSQQLEPNIHYIKIKSFTASVSWEFKEIIDSIENPEEKVLVIDLRDNLGGLATSSADILDYLLPACTTSYIVYRDGYMYSYYSDAAQTKFKKILVLVNEYSASSSEILALGLKKHLNNVVIIGRPTVGKGVGQLVYENKSKKYMIYLVSFYWNVMEENILGKRIEPDVYVNSSSDAAYMNEVKRQAAR”, the protein production entry is listed as “failed”.

As to “MKKRVQNKRFARTICDGNNPSQIATDLRDICEGEKTRRFSVANFARDNSLAILREICEELARTKKFLAKSLQIARDLQVQILFCGNFCDETYKDRDFAGWLKLYVTNGCENELLLLWLYEIVQEPRSKITTAKSFVVDVNANKTYAKFKPFILASQAFYLTRV”, the protein production entry is recorded as “not failed”.

With “MKKSILFTFVLCLLSQWSVAQAPKWVEKAKRSVFSIVTYDKDDKIQNTGNGFFVTEDGVALSDYSLFKGAQRAVIINSEGEKMPVECILGANDMYDIIKFRVGITVKKVPALQVAALAPAVGAEVYLLPYSTQKGGNVTRGKVKKVDNIGGDKYHYYTLDMVLKDKMVSCPVTTADGKVFGVAQKSSGQDTASISYAAGAAFAMSQNISALALSDPALNAIGIKKGLPEDEDQALVYLFIASTQSTPEAYAIALDDFIKTFPNSADGYLRRAGNYVFADKDENHMDKAAADLEHALKVAQKKDDTYYNIAKLIYNYQLSKPETVYKDWTYDQALENVRSAIAIQSLPVYQQLEGDILFAKQDYAGAFASYDKVNQTELASPASFFSAAKAKELSKAAPEEVIALLDSCIARCQTPITSDLAPYLLERAQMYMNVEKYRLALADYDAYFNAVKGSVNDLFYYYREQAAFKAKQFQRALDDIAKAIELNPEDLTYRAEQAVVNLRVGRYEEAEKVLKDALAIDPKYAEGYRLLGICQIQLKQEKAACASFAKAKELGDPNVDELIKKHCK”, the protein production entry is recorded as “failed”.

On to “MKKSLTLVLVVVSILIFSQTFKLEKVLGFSDISSLAFKDGYLLLGTGNGEIIVYKDGSYYRAFKVHDNRVNEVTFENGFIVSASDDKTVGVTNLETGEIKLLKGHMKGVSSVAVAGSKILSASFDGTVRVWSFPDGGEISSQKLGPSVVQIAAHENRYVVGLANGLALIRDLSNQSFSIPLKAHPEGIKKIVFSENGQLIATCGGNTVKVWNASNGNLVLQYDHVITVNDVAFLENDSLIFVADDYKAVVLNIQKNEVVKSIDAHNNFVLFVSSDDGSIATYGMDKTVKVWNANLELQYSLYGHQLSVNTVALSSDRKFIVSGSDDREILIWNTEKGIAEHRIKALSGVRKLLTVENNIISCLDSNQLKIYNLENGKLVKRIKVGTTSTMDIALQNDRMAVGFYDGSVALFRYPSFEEIWRKDTEHEMIQTIDMNNKFIAFGVSYSDPKDKIGYVEVLSADTGERVFLLEGHRGNVNAVKFAGDFLVSGGEDGKVILWNLDTGSKVKEIYLNEPVSSLFVDEKELFVGTWNGSIKIFAFPDLTLKTSLKASDQKIGHLIKVGNHLVVPCGDGKIRILVEK”, for which the protein production result is “failed”.

As to “MKKTFEKVYHLKLSIKGITPQIWRRIQVPENYTFLDLHKAIQAVMDWEDYHLHEFEMVNPKTGMLDKIGAEGDDFDAFGGPLVSEKKAKLSDYFTLENKEALYTYDFGDNWQVKVRLEKILPRKEGVEYPICTAGKRAAVPEDSGGVWGYEEMLEVLKDSEHEEYEDTVLWLGDDFDPEYFDPKDVSF”, the protein production entry is on record as “not failed”.

On to “MKKVFIPINTKIPVERQFPNRVPIWGNYEFIISTKEPEQEYDYVVVLDDIEYSLRLMCCKQNICLFTGEPPYVKLYPRKYLNQFGHVYTCQSSVLKRDNACLSYPALPWMLYYNFYNDKQKEELLIDYDFLKNRPTLQRKNKICLFTSNKKISKGHIERIKFALKLQEEMPDLIDIYGSGFTNVDYKYEVMVQYKYAIVIENCSYPYYWTEKLADTFLSGCYPIYFGDPHIGDFFSKEEMAVIDIRNFDESKQTIKKIIDNNVYEKQYENICHARDKILDKYNMFSLISSTLDSIPAKLDKEKLLLSPMRLSVFDRIRNRIYRLFYLEHHHHHH”, for which the protein production entry is given as “failed”.

For “MKKVLVGLLAIMVMIIASGYTYYKMNYGGESYYVQILVNGEREETTADDHTPMVIYHYKLDSFNSKGDKKLVKFMASHNLRNQAYLELTYNKHKGVTNWNEVQEKEIPKPALKELQSLENLEHHHHHH”, the protein production entry is reported as “failed”.

For the sequence “MKKVTIVGGNGTVGRVLAGGLAGEGYEVTVLDLKEPDDKQAVRFIRVDATDYNEVVKSIPAQTNALINLLAVKPSGDLLDRQEFAKMTDIFFKATYTILRAAAELGVPKVVFASSNHVTDVYEKGGDSLLGRQINTNDYPQSKSLYGLLKLASENLGYLFSHQLDAKVSVINLRIGTAAENELETLHAKPRSKKTLLSHPDLIGIFKAAIKSGKTYGTYYAVSDNKGRPWSIDSAIRELGYRPQVSASDILDED”, the protein production entry is “failed”.

“MKKYILIGLGGAIGAILRCFIRNTKIPVYKGEFPISTLMINLSGAFILAVILITANEIWSFNEEIRLGIATGFVGAYTTFSTMCKETIILMNKNLYFLAFCYVTVSVVFGLLFAYFGALSARKILSRLLKVRKEDEKAS”: the protein production entry is reported as “failed”.

Take “MKKYLDKLQNMPIGISGTCLAFITLSNSWNLKGINYFKPIAIFLAVCMLSLMILRLIRFPKVMYEELKNPVTGTFYPTMGMVVWLVSGFFYPYFPVVCSWLWIAAVIYHYGIVIFYTIIRIKERKFENIMPTCFIVYTGMITGSVASKGMDGVIPQIPQIAHFMLMFGFIFYTILLPLVLYIVFKSEILDDHKLPTVGIICSPAPLGVVGILTIEPNPNPYMLAWLIITGLILLVVVYGYILKLFKEGFKPSYAAFTFPLAIATLSAFKLSTYFTGLGYAKMANLFKFLGDVEIFIATYVIFFMLLNFLNMFFKAISPKLGEYVEEEEELIGGTLYSK”: the protein production result is “failed”.

As to “MKLAKKMILAAAVLPLTLGTTAALAYGGHGWDKEGDGHCGDRGERGIWKQLDLTAEQQAQLKEMREAGREEMRANRGQSHDAMKALHAQERALVLAADFDQAAAENLAKQMVDQQVTHRVKMMEKRHQMMSILTAEQKAKLQTLQQEKMAECMQDGQHGKGKKHASQLEHHHHHH”, the protein production result is listed as “not failed”.

“MKLAYWMYAGPAHIGTLRISSSFRNVHAIMHAPLGDDYFNVMRSMLERERNFTPVTTSVVDRNVLARGSQEKVIDNILRKDTEERPDLIVLTPTCTSSILQEDLQNFVERAKESAQCDVLLADVNHYRVNELQAADRTLEQIVRFYLDRAQRQGTLPSQRTEQPSVNILGMTTLGFHNRHDTTELQRLMADLGITVNAVIPAGASVEELQHLPRAWFNLVPYREVGLLTAQYLQDTFDQPMVAIAPMGITATADCIRQIQQVLNQQGAAVDFEPFIDRQTRFASEAAWFSHSIDCQNLTGKRAVVFGDNTHAAAFTKILSREMGIHVVLAGTYCKHDADWFEAEVAGYCDRVLISDDHNAIADAIAELEPAAIFGTQMERHVGKRLNIPCGVIAAPVHIQNFPVGYRPFVGYEGANQIVDLVYNSFTLGMEDHLLEIFGGHDTKEVLTKTVSAGSDLDWKPDGLTELNRIPGFVRGKVKRNTEKYAREQGLTAITAEVLYAAKEALGALEHHHHHH”: the protein production result is “not failed”.

Turning to “MKLDEIARLAGVSRTTASYVINGKAKQYRVSDKTVEKVMAVVREHNYHPNAVAAGLRAGRTRSIGLVIPDLENTSYTRIANYLERQARQRGYQLLIACSEDQPDNEMRCIEHLLQRQVDAIIVSTSLPPEHPFYQRWANDPFPIVALDRALDREHFTSVVGADQDDAEMLAEELRKFPAETVLYLGALPELSVSFLREQGFRTAWKDDPREVHFLYANSYEREAAAQLFEKWLETHPMPQALFTTSFALLQGVMDVTLRRDGKLPSDLAIATFG”, the protein production result is “failed”.

Regarding “MKLFTTALFAIAFGIVIGLSFPSLWITEIWEPSNPRGAERLPSGIIASESDLYLRRLWGNPDEDLVKQPRYLATFTVGYNQRHNIDACVSKFSENFTIVLFHYDGVTSAWNDEFEWSRNAIHISVKKQTKWWYAKRFLHPDIVARYDYIFIWDEDLGVDHFNAEEYIHIVKKHDLEISQPGLDPETGFNWQITKRREHSEVHKETDEKLDWCSNPPRPPCAAFVEIMAPVFSRDAWRCVWHMIQNDLVHGWGLDFALRRCVEEPAFEKIGIVDSQWIVHQFIPSLGNQGKADNGKAPWQGVRDRCQMEWKMFENRVEAAEKDYFRSLQVESPSNSTTSH”, the protein production entry is given as “failed”.

As to “MKLGIGKIKDVLKSGAGKSTESGREEQKIEEIEPDRVEEATMTAKISEQESENTPDKEHLVPMNRTECKKTGLIFFPAFDWAISPTHPEREERLLYTRDQIFEEGLMDLPQIAEYKPRLAEFKDIARVHFCIPDIEAQATTPHLIAAGSCLVLADALMRGEVKNAFALVRPPGHHAMTVAHGNRGFCNINNEAILVEYLRKKYGIRRIAIVDTDVHHGDGTQEIFYNDPDILFISFHQDGRTLYPGSGFTNELGGPKALGRTINIPLPPGTPDEGILYVLDSLVMPILEDFKPELVLNSAGQDNHYTDPLANMRFSAQGYAKLNEKLGPDMAVLEGGYAIQSALPYVNTGIILAMAGLDYSCVMEPDFKPGMFVQAARDRQILEGVVATQLENWKNRNRLVEEEIAKHGDFYRRKKQIFYDTDMIQEVQEETIKMCPDCQGYVTIDSRAHRSINDTRIFGVSVPIYACNRCQAEAEEEYKKRLKSPEYEYVYLQDKKADEYRAYNMRTKQEIVY”, the protein production entry is recorded as “failed”.

Consider “MKLGKTLAISCISMLSLSIWTQQVSAASAFDPSSEWMLGDWNGERTALKQKGYDFSIGYTGEMATVLDSKDTSRHGTEYAGQVALGTHFDLNKILGWQDTEAQITLTHRDGHDIKNKAAALEGQLSSTQEVYGRGQTTRLTDLWIKKKFFDQALDIKVGRFGESEDFNPAACDFQNLALCGDQMGNWNAGDQIHNWPVSQWAARVKYNVTPEVFAQVGVYEYNPENLKRSKGFNLSTDGSKGAVIPVEVVWQPKSGLINGLAGEYRAGYYYSTADANEINSTNKDHGQGGWLSFIQQLTAVNGDTSRGLKVVGQATFFDEATSRVKNTQSLAFAYKGLVDTRPKDELAIGFSRINLNDDAYLGKDVDSEYNSEIYYGIEATNWLTVRPNVQYVRHVGALKDGNNAWVGGIKFQTVF”, for which the protein production result is “failed”.
